Assay results: PMC5773583, “Redundancy of protein disulfide isomerases in the catalysis of the inactivating disulfide switch in A Disintegrin and Metalloprotease 17” (Scientific Reports, 2018)
Bridge positions count the residues as written; N and C are the ends.

T1: PDIA6 inverse TRAP mutant C55S C190S (human, UniProt Q15084 20-440, C55S | C190S)
T1 construct: mature human PDIA6 with the N-terminal cysteines of both CGHC motifs exchanged (C55S, C190S), in pET28; also called PDIA6 C55S C190S
T1 sequence (looked up): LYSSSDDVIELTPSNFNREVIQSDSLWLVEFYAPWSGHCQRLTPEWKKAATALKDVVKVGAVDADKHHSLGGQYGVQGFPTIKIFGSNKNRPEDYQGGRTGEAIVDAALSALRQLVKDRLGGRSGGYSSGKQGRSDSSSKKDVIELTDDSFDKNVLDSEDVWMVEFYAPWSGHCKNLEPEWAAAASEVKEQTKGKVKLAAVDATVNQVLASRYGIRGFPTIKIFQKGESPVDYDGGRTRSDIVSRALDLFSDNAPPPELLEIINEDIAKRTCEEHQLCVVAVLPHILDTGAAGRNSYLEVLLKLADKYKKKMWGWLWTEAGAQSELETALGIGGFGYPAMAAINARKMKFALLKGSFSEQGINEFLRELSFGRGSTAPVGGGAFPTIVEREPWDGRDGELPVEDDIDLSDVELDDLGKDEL

T2: protein disulfide isomerase PDIA3 (human, UniProt P30101 25-505)
T2 construct: mature human PDIA3 (MW 56.6 kDa), cloned into pET28; Monomeric by SEC-MALS; also called Erp57
T2 sequence (looked up): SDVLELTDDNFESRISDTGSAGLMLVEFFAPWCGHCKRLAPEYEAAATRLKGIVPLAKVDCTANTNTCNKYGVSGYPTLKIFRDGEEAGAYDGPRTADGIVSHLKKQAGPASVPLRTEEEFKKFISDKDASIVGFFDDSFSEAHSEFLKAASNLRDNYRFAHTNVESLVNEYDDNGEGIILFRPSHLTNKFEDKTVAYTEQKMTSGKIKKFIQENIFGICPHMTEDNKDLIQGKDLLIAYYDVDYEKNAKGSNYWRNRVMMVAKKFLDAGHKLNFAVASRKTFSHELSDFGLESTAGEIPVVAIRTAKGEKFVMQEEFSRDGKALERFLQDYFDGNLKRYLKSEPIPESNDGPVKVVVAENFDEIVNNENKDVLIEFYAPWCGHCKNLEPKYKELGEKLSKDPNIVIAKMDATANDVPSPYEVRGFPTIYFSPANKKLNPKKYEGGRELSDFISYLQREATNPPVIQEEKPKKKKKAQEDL

T3: PDIA6 C193S TRAP mutant (human, UniProt Q15084 20-440, C193S)
T3 construct: mature human PDIA6 with C193S (second cysteine of the CGHC motif of the a' domain), in pET28
T3 sequence (looked up): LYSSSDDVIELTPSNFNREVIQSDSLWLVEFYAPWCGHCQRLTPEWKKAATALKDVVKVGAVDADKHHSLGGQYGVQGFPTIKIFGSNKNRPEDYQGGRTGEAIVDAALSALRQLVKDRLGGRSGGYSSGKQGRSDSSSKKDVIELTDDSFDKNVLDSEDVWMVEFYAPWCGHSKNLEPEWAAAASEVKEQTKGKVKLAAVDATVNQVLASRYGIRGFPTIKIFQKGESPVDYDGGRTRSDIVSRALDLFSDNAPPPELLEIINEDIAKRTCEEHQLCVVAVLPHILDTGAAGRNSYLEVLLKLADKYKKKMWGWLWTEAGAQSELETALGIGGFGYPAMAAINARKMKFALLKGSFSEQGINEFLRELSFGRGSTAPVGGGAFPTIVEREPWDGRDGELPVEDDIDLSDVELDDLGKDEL

T4: PDIA6 C55S C58S mutant (human, UniProt Q15084 20-440, C55S | C58S)
T4 construct: mature human PDIA6 with both cysteines of the a domain exchanged (C55S, C58S), in pET28
T4 sequence (looked up): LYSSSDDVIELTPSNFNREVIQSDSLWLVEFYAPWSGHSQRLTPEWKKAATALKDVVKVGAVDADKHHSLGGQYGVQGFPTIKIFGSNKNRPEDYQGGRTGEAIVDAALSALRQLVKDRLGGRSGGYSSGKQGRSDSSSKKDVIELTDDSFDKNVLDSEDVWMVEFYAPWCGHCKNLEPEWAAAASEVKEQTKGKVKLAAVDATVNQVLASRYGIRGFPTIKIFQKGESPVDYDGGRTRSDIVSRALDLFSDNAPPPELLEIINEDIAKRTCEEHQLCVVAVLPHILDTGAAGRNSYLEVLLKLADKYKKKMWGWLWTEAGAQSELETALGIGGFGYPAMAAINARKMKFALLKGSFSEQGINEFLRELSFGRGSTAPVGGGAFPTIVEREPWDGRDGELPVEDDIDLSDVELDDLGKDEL

T5: PDIA6 double TRAP mutant (2 TRAP) C58S C193S (human, UniProt Q15084 20-440, C58S | C193S)
T5 construct: mature human PDIA6 with C58S and C193S, in pET28; also called PDIA6 C58S C193S; PDIA6_2 TRAP
T5 sequence (looked up): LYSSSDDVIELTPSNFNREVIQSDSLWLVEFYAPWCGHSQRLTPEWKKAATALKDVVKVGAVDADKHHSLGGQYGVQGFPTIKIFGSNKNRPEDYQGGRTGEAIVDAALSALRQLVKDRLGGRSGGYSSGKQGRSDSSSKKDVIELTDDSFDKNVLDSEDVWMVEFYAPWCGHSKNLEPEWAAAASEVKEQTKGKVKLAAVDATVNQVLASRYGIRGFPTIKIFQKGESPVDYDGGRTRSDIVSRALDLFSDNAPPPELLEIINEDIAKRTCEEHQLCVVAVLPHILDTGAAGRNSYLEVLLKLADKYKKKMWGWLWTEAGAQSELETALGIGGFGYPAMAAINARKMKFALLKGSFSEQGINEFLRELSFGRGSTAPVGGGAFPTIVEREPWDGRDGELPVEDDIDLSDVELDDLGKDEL

T6: PDIA6 C58S TRAP mutant (human, UniProt Q15084 20-440, C58S)
T6 construct: mature human PDIA6 with C58S (second cysteine of the CGHC motif of the a domain), in pET28
T6 sequence (looked up): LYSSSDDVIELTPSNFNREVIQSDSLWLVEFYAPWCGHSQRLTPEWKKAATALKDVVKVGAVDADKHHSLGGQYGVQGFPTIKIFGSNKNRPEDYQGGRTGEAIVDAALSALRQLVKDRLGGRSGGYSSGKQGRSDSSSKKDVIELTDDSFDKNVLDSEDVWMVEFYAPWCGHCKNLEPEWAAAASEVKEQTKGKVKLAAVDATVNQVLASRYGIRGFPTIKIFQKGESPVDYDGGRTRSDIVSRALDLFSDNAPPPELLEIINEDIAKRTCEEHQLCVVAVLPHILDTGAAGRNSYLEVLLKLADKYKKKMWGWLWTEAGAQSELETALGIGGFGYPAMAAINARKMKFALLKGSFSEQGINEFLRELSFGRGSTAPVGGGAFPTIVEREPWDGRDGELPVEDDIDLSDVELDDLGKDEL

B1: protein disulfide isomerase PDIA6 (enzyme, human, UniProt Q15084 20-440, looked up)
chain: LYSSSDDVIELTPSNFNREVIQSDSLWLVEFYAPWCGHCQRLTPEWKKAATALKDVVKVGAVDADKHHSLGGQYGVQGFPTIKIFGSNKNRPEDYQGGRTGEAIVDAALSALRQLVKDRLGGRSGGYSSGKQGRSDSSSKKDVIELTDDSFDKNVLDSEDVWMVEFYAPWCGHCKNLEPEWAAAASEVKEQTKGKVKLAAVDATVNQVLASRYGIRGFPTIKIFQKGESPVDYDGGRTRSDIVSRALDLFSDNAPPPELLEIINEDIAKRTCEEHQLCVVAVLPHILDTGAAGRNSYLEVLLKLADKYKKKMWGWLWTEAGAQSELETALGIGGFGYPAMAAINARKMKFALLKGSFSEQGINEFLRELSFGRGSTAPVGGGAFPTIVEREPWDGRDGELPVEDDIDLSDVELDDLGKDEL
notes: mature human PDIA6 (MW 48.8 kDa), cloned into pET28; Dimer in solution by SEC-MALS; also called Erp5; wild-type PDIA6

What was measured:
[1] = target: T1, PDIA6 inverse TRAP mutant C55S C190S; assay: MST; RED-NHS-labelled MPD constant at 20 nM, unlabelled PDI titrated (7.5 uM to 0.9537 nM, 1:2 series, 16 dilutions); PBS-P (PBS, 0.01% P20, pH 7.4), 25 °C; KD from the ligand-induced change of the initial fluorescence intensity; settings: both partners purified
[2] = target: T2, protein disulfide isomerase PDIA3; assay: as above; settings: both partners purified
PDIA6 C193S TRAP mutant = target: T3, PDIA6 C193S TRAP mutant; assay: as above; settings: both partners purified
[3] = target: B1; assay: as above; settings: both partners purified
[4] = target: T7, protein disulfide isomerase PDIA1 (human, UniProt P07237 18-508); assay: as above; settings: both partners purified
T7 construct: mature human PDIA1 (MW 57.6 kDa), cloned into pET28; Monomeric by SEC-MALS
T7 sequence (P07237 18-508): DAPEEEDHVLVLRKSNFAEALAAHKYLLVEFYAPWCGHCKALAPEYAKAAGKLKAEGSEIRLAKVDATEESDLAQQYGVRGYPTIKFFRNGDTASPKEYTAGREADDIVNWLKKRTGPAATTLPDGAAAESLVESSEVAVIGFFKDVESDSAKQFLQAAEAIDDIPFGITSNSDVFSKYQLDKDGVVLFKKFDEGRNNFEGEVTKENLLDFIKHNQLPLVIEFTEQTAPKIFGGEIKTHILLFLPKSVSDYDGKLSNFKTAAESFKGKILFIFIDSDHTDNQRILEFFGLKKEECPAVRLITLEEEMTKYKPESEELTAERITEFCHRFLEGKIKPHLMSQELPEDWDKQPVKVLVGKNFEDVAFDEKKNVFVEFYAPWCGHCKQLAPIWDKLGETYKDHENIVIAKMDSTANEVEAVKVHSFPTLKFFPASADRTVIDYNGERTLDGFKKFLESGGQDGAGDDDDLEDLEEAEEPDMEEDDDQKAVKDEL

PDIA6 C55S C58S mutant = target: T4, PDIA6 C55S C58S mutant; assay: as above; settings: both partners purified
[5] = target: T5, PDIA6 double TRAP mutant (2 TRAP) C58S …; assay: as above; settings: both partners purified
PDIA6 C58S TRAP mutant = target: T6, PDIA6 C58S TRAP mutant; assay: as above; settings: both partners purified
[6] = target: the molecule itself; assay: SEC-MALS; Superdex 200 10/300 GL, 0.5 ml/minute, PBS pH 7.4; 100–500 µg protein per analysis

| Binder | Kd [1] | Kd [2] | Kd (PDIA6 C193S TRAP mutant) | Kd [3] | Kd [4] | Kd (PDIA6 C55S C58S mutant) | Kd [5] | Kd (PDIA6 C58S TRAP mutant) | stoichiometry N [6] |
| --- | --- | --- | --- | --- | --- | --- | --- | --- | --- |
| open membrane-proximal domain (opMPD) of A Disintegrin and Metalloprotease 17 (ADAM17) (domain or fragment, UniProt P78536 581-642, looked up, disulfide 20-50, 55-61; also: labelled on amines with RED-NHS dye, membrane-proximal domain of ADAM17, open isomer, recombinant, 9.9 kDa; also called open conformation of the MPD) FCEREQQLESCACNETDNSCKVCCRDLSGRCVPYVDAEQKNLFLRKGKPCTVGFCDMNGKCE | 115 nM | 90 nM | 142 nM | 93 nM | 158 nM | 138 nM | 192 nM | 141 nM |  |
| B1 |  |  |  |  |  |  |  |  | 2 |
| closed membrane-proximal domain (clMPD) of A Disintegrin and Metalloprotease 17 (ADAM17) (domain or fragment, UniProt P78536 581-642, looked up, disulfide 20-55, 50-61; also: labelled on amines with RED-NHS dye, membrane-proximal domain of ADAM17, closed disulfide isomer; it is the disulfide isomer of m9 and probably carries the same tag; also called closed MPD; closed isoform) FCEREQQLESCACNETDNSCKVCCRDLSGRCVPYVDAEQKNLFLRKGKPCTVGFCDMNGKCE | 116 nM | 55 nM | 91 nM | 61 nM | 211 nM | 191 nM | 151 nM | 113 nM |  |
